Experiment: soluble on expression in E. coli; label from the status in PepcDB or PDB records
In the case of “MTKQPPIAKADLQKTQGNRAPAAVKNSDVISFINQPSMKEQLAAALPRHMTAERMIRIATTEIRKVPALGNCDTMSFVSAIVQCSQLGLEPGSALGHAYLLPFGNKNEKSGKKNVQLIIGYRGMIDLARRSGQIASLSARVVREGDEFSFEFGLDEKLIHRPGENEDAPVTHVYAVARLKDGGTQFEVMTRKQIELVRSLSKAGNNGPWVTHWEEMAKKTAIRRLFKYLPVSIEIQRAVSMDEKEPLTIDPADSSVLTGEYSVIDNSEE”, the “soluble on expression in E. coli” value is reported as “soluble”. With “MTKTLPKDFIFGGATAAYQAEGATHTDGKGPVAWDKYLEDNYWYTAEPASDFYHKYPVDLELAEEYGVNGIRISIAWSRIFPTGYGEVNEKGVEFYHKLFAECHKRHVEPFVTLHHFDTPEALHSNGDFLNRENIEHFIDYAAFCFEEFPEVNYWTTFNEIGPIGDGQYLVGKFPPGIKYDLAKVFQSHHNMMVSHARAVKLYKDKGYKGEIGVVHALPTKYPYDPENPADVRAAELEDIIHNKFILDATYLGHYSDKTMEGVNHILAENGGELDLRDEDFQALDAAKDLNDFLGINYYMSDWMQAFDGETEIIHNGKGEKGSSKYQIKGVGRRVAPDYVPRTDWDWIIYPEGLYDQIMRVKNDYPNYKKIYITCNGLGYKDEFVDNTVYDDGRIDYVKQHLEVLSDAIADGANVKGYFIWSLMDVFSWSNGYEKRYGLFYVDFDTQERYPKKSAHWYKKLAETQVIE” the “soluble on expression in E. coli” value was “soluble”. With “MTKVTEHLEKQLAENRVKQEEARRAREEEKQRSDNAFNNAERAFERKLEEQRKENQENQKELELEMDNSRLKHEMLYREKQKEHEDVMGAMRNASSAERSAAANMHEKELNLLRKTHESEMKNCEVQMEAIRQKGEREVRDVEDQMAKLHLERGAELDKHHKKMLKMVEKSHEDCTREKVKQHALKMLEMKNEGQRKAIEHKIVMEKLEQARGMSQRLAVNEANREVYRLFMAIMEPVNEARSNLGDIKALCDNNGEDYEDSDTACAEYYSSGIGNSRSIFDIRTNAFRDFVLNQPNCDHELVIACQTAINSMKKPMESTTIRSACTTLPRFMGEQRHLRITAILQNIDDLTSTLEAISDDVRLNFVSWKQLEIVEAVVEQKTIEKE” the “soluble on expression in E. coli” value was “soluble”. In the case of “MTKYRLHYFNARGYAEASRAMFHMAGVEFEDVRYEIDDWIKEENTLKNEMPFGQMPVLEVDGEKIPQSVAIARFVANQLGFAGQTPVEKAWADAFTDLYKDFLIDMKPWAMIAFGYPGAAGDRDELKKTSLDPAKEKYFKLLSKRLEKSKSGFLLDSGISFPDLFFFETTTSLIELEKGFLGTDFPVVNAYFKRIAEHPKLKPYLETRPYSSK”, the “soluble on expression in E. coli” value is reported as “not soluble”. In the case of “MTLKFSVERLVDSEKESEEADVEEQNNLKKLEEDEEDDELCEKSGKNEPLSQTLSYFDVLLPHVQMACSNPFISGIGASGSGDQNLNTGAGGSVWQHPWLELLQSTTAAQFGDVTAGLFLQPLRKNKRIRTAFSASQLIQLEKAFEGNHYVVGNERKQLAAKLSLTETQVKVWFQNRRTKHKRVRLEGSDPNAPMSNDEDDEDDKKSVS”, the “soluble on expression in E. coli” value is reported as “not soluble”. For “MTLKLIENLQKLGFTGNEAKVYSSLVCLKQAKASEIAENAGVPRPKIYGTLRTMEKKGYVRIIEGEPTIFCCIQPEELILRLKSDFLLFLRETASELNSLNPGNSDFVSEGFYRERIKV”, the “soluble on expression in E. coli” value was “not soluble”. For “MTLPRFDQIRPKIEQHIREVKDFPKKGINFRDIMPLFTNPQLVNELCVVIADHVRHTVGHVDSVAGLEARGFLFGPQVAIQLGVPFVPIRKKGKLPGATIEASYVKEYGEDRVEIQEGAIKNGDIVFLIDDLLATGGTLRAATDLVVKAGGKVGEAFVLIELAPLNGRSKLPDVNLTTLISYDSA”, the “soluble on expression in E. coli” value was “not soluble”. With “MTLPSSCAPLTGISRARLPAWALPDGWPTQANGEPLLADLAFRDGRIAALTPTDQPTPGLWDLAGALTLPGLVEPHAHLDKTFTIERCRPAQAGLLPAIHAMHEDRRHWSRADIQRRASAALARAAANGVTHLRSHIDWFNADAPDAWQEIARLDTVGITLERVALVPLPLFRELAQAEAIARTVANSGERCLLGGFIHSSNWDATAMENLLYSAARWDLDLDLHIDEELSEVSQGLTWLADHLSRHPFPGHICCSHGCALAAGSDEQAAPILRQLAAHGVTLIALPMTNLLLQDATFGRTPRQRGITLLHEAQAAGVATLLGCDNVQDAFCPAGSYDPLDTLACGLFSAQLSDLFDQQSRLICDRAALTGSPADAAPFAVGAAASVVIFPGSDRFTWPLNSAARLVVNHGRLTHRRVWQEEMAHES” the “soluble on expression in E. coli” value was “not soluble”. With “MTLRCSDVNVEPLPGTAKTGSGFVLLEHAGSWSRDVLDGGTFDPELTDQLKRHLKASGMGLQLIRKPGREGRNVEKHNLFLVFAEASIIEHLVVDAPADVLDLDLSGPGKNNAQRMDDPMLLICTHSKRDVCCAIKGRPLAAAVEPQFGPLHVWEASHTKGHRFAPSMLLMPWNYSYGLLDEAETVQLFQGALDNKLFLPGNRGRGTLDARGQVAEIAVAEAFGEAVAPASLQVEFEDDSVLVTHPDGRTWVVELERIEVDGVVSSCGDQPKTGKAWVARQVTELIG” the “soluble on expression in E. coli” value was “not soluble”. In the case of “MTLTTTLTTGLALLLAAQALPAPASAAPAAVGSVTIGWADATHELIKITWTETTAAANTLTLHTDDPETAAVRFGTTTADQPNEYLVDPTQLGYTADPRHTSWILVSDGTATTARSVDFDRFHHAQRGAALSFAGDRVRWTAPADTSVDGTPGDPLDLPKAYTYQPMQRVDDDPVGNYECKDTELPATTERTGLVPNPGTAYDLFLTMTNEWGTADVGYLQVGTTQTVTADGPAATAYGATTTIKGHAEGTVMFEQGRPPVCDEVRVDLSNQPLTVQQRTSSTAPWTVVGTVRTTVNGDYTAVVKNPGHRQYRVVRPNTAAFESAWYGGTSGVITVRSLTRVVSAKFIQPVVRLGTRPQAYLWVDPAGTQKAALQFRNAAGAWQGVTYKTLYAGRGLVSFPWNRRGTTRFRWWVPASGGAESVVSPVFTVTVT”, the “soluble on expression in E. coli” value is reported as “not soluble”. With “MTLYSFRLGLLLFCSLLFGCTAPTPAPVSGLGKDYNKVERGSYRGSYYEVKKGDTLYFIAYLTDKDVNDLISYNDLAPPYTIHPGQKIKLWLPNYTPPAYGGTGGAATVAVASSTSASVAKAATTATVAQTVSKSSNTKNVQNGSTNSQNLTKKDPVKTVDQTKTKEYVEPVGKQNVNVNVAKAKPSDEKIAKWLWPTKGRVIKNFSAGDQGNKGIDIAGQRGQAVVATADGTVVYSGNALRGYGNLIIIKHNEHYLSAYAHNDQLLAKEGQTVQAGQKIATMGSSGTNSVRLHFEIRYQGKSVNPKRYLP” the “soluble on expression in E. coli” value was “not soluble”. For “MTMDTAQLKSQIQQYLVESGNYELISNELKARLLQEGWVDKVKDLTKSEMNINESTNFTQILSTVEPKALEMVSDSTRETVLKQIREFLEEIVDTQ”, the “soluble on expression in E. coli” value was “soluble”. With “MTNFKDNDGDGTKLHVVMFPWLAFGHMVPYLELSKLIAQKGHKVSFISTPRNIDRLLPWLPENLSSVINFVKLSLPVGDNKLPEDGEATTDVPFELIPYLKIAYDGLKVPVTEFLESSKPDWVLQDFAGFWLPPISRRLGIKTGFFSAFNGATLGILKPPGFEEYRTSPADFMKPPKWVPFETSVAFKLFECRFIFKGFMAETTEGNVPDIHRVGGVIDGCDVIFVRSCYEYEAEWLGLTQELHRKPVIPVGVLPPKPDEKFEDTDTWLSVKKWLDSRKSKSIVYVAFGSEAKPSQTELNEIALGLELSGLPFFWVLKTRRGPWDTEPVELPEGFEERTADRGMVWRGWVEQLRTLSHDSIGLVLTHPGWGTIIEAIRFAKPMAMLVFVYDQGLNARVIEEKKIGYMIPRDETEGFFTKESVANSLRLVMVEEEGKVYRENVKEMKGVFGDMDRQDRYVDSFLEYLVTNR” the “soluble on expression in E. coli” value was “soluble”.

— the DeepSol protein solubility set
